The record followed here is PMC4828312 (Journal of neurochemistry, 2016).

First the molecules themselves.
B1: Human recombinant tubulin β-3 (TUBB3) (natural protein)
chain: MREIVHIQAGQCGNQIGAKFWEVISDEHGIDPSGNYVGDSDLQLERISVYYNEASSHKYVPRAILVDLEPGTMDSVRSGAFGHLFRPDNFIFGQSGAGNNWAKGHYTEGAELVDSVLDVVRKECENCDCLQGFQLTHSLGGGTGSGMGTLLISKVREEYPDRIMNTFSVVPSPKVSDTVVEPYNATLSIHQLVENTDETYCIDNEALYDICFRTLKLATPTYGDLNHLVSATMSGVTTSLRFPGQLNADLRKLAVNMVPFPRLHFFMPGFAPLTARGSQQYRALTVPELTQQMFDAKNMMAACDPRHGRYLTVATVFRGRMSMKEVDEQMLAIQSKNSSYFVEWIPNNVKVAVCDIPPRGLKMSSTFIGNSTAIQELFKRISEQFTAMFRRKAFLHWYTGEGMDEMEFTEAESNMNDLVSEYQQYQDATAEEEGEMYEDDEEESEAQGPK

The target of test [1] is HIV-1 envelope glycoprotein gp120, strain IIIB (HIV-1 (strain IIIB), UniProt P04578 33-511). The test can be described thus: SPR.
Test [2] has as its target B1. The test can be described thus: SPR.

In the case of B1, the Kd (in general, the free concentration of one partner at which half of the binding sites on the other are occupied at equilibrium, for simple one-to-one binding) in test [1] is 7.5 nM. In other words, the single-digit nanomolar range.

Turning to NDMVEQMHEDIISLWDQSLK [Helix-A peptide of gp120], the binding result in test [2] is “binds”.
